Where a chain is given by its changes, count along the chain named. Names may count otherwise.

The record followed here is patent publication US20200347143A1 (GLENMARK PHARMACEUTICALS S A, published 2020).

For assay [1], the target named is T1, human OX40 on cells (human, UniProt P43489 29-277).
T1 sequence (looked up): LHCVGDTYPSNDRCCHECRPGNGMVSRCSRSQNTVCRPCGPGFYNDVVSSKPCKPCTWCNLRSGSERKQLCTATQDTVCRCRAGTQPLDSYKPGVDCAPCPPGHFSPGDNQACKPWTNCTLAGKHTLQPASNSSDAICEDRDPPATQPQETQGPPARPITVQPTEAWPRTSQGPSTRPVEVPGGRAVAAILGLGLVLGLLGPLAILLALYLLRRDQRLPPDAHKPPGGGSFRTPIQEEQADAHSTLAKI
Put plainly: cell-based or functional assay.

In assay [2] the target is T1, human OX40 on cells. Nature of the assay: cell-based or functional assay. This is another data set of the same source.
In assay [3] the target is T1, human OX40 on cells. Nature of the assay: cell-based or functional assay. The source holds these as a separate data set.
For assay [4], the target named is recombinant CD40 molecule (R&D) (UniProt P25942 21-193). Put plainly: direct ELISA on coated recombinant CD40, detection streptavidin-HRP, absorbance 450 nm [panel CD40]. Here is the method: (§1) FIG. 13. A dose-response of various antibodies was incubated on various receptors, members of Tumor Necrosis Factor Receptor family, then detected with Streptavidin coupled with Horseradish Peroxidase enzyme. […] Each data point is the mean of duplicate values except for control curves that were performed in simplicate.
(§2) The experiment was conducted following the same protocol than previously described. […] These molecules were all coated at 2 μg/ml in PBS overnight at 4° C.
For orientation: An ELISA detects its analyte on a solid surface through an enzyme-linked reagent.

Assay [5] deals with T2, recombinant DR6 molecule (R&D) (UniProt O75509 42-349, limits assumed).
T2 sequence (looked up): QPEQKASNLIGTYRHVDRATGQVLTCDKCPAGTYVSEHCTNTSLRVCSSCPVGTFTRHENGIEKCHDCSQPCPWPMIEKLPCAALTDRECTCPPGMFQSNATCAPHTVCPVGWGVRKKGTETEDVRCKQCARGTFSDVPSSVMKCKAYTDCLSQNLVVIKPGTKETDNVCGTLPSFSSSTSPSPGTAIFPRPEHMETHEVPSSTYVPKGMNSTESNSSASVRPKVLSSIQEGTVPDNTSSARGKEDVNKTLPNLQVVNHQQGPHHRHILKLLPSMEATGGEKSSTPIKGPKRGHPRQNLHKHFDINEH
Put plainly: direct ELISA on coated recombinant DR6, detection streptavidin-HRP, absorbance 450 nm [panel DR6]. Here is the method:
as §1, §2

For assay [6], the target named is T3, recombinant DR3 molecule (R&D) (UniProt Q93038 25-199, limits assumed).
T3 sequence (looked up): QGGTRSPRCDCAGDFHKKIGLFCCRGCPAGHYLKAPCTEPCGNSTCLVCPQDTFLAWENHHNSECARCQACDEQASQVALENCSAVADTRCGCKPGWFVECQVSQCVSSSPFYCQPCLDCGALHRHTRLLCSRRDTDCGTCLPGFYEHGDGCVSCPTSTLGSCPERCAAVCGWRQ
Put plainly: direct ELISA on coated recombinant DR3, detection streptavidin-HRP, absorbance 450 nm [panel DR3]. Here is the method:
as §1, §2

Assay [7] addresses T4, recombinant GITR molecule (R&D) (UniProt Q9Y5U5 26-161).
T4 sequence (looked up): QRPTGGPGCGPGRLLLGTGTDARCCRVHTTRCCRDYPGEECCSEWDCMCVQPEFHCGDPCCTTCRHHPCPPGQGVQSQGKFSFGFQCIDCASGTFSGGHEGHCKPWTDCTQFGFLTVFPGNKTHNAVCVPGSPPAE
Nature of the assay: direct ELISA on coated recombinant GITR, detection streptavidin-HRP, absorbance 450 nm [panel GITR]. Here is the method: as §1, §2

The target in a further assay is rat OX40-Fc (rat). Nature of the assay: ELISA on coated rat OX40-Fc. As to the method: (§3) These constructs were expressed in HEK293-EBNA1 cells and purified using protein A. Then, human and rat OX40-Fc were tested in ELISA and Biacore to determine antibody cross-reactivity. For the ELISA, 96 well-microtiter plates (Costar USA, distributor VWR AG, Nyon, Switzerland) were coated with 100 μl of recombinant human or rat OX40-Fc at 2 μg/ml in PBS. Plates were incubated overnight at 4° C. and were then blocked with PBS 2% BSA (Bovine Serum Albumine, PAA Laboratories, Pasching, Austria) at room temperature (RT) for one hour. The blocking solution was removed and the purified antibodies were added at 10 μg/ml in PBS 2% BSA. The plates were incubated at RT for 1 hour, then washed 5 times with PBS 0.01% Tween-20 (Sigma-Aldrich Chemie GmbH, Buchs, Switzerland). […] Plates were incubated for 1 hour at RT, washed 5 times with PBS 0.01% Tween-20 and the TMB substrate (Bio-rad Laboratories AG, Reinach, Switzerland) was added to the plates and the reaction stopped after 5 minutes by adding H₂SO₄. Absorbance was then read at 450 nm by a microplate reader (Biotek, USA; distributor: WITTEC AG, Littau, Switzerland). Biacore experiments were specifically conducted with Hexa-hzG3V9 and Hexa-hz1D10v1 which are dAb-Fc fusion proteins. […] Binding of human and cyno OX40-Fc molecules was determined by successively injecting these proteins on the 4 flow-paths (flow-path 1 and 3 being used as references) at a concentration of 200 nM and a flow rate of 30 uL/min for 240 seconds. Regeneration between the two injections was done using 3M MgCl2, at 30 uL/min for 60 seconds. Using these two approaches, human/rat OX40 binding was assessed (table 16).

The target in assay [8] is T5, recombinant human OX40-his protein (human, UniProt P43489 29-214).
T5 construct: Secreted via the native signal peptide, which lies within residues 1-214; also called Human OX40R-His; histidine tagged human OX40 receptor extracellular domain
T5 sequence: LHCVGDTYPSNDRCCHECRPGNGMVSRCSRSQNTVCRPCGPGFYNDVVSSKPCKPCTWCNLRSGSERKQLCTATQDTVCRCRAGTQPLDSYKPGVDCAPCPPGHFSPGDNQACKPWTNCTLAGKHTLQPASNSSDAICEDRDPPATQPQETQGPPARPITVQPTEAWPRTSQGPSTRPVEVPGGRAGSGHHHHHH
Put plainly: SPR, antibody captured on Protein A, OX40-his injected. As to the method: (§4) Measurements were performed on CM5 sensor chips (Biacore 2000, GE Healthcare Europe GmbH, Cat. No: BR-1000-14) individually coupled with Protein A (Sigma, Buchs, Switzerland, Cat. No: P7837) using a commercial amine coupling kit (GE Healthcare Europe GmbH, Cat. No: BR-1000-50). 200-600 RUs of humanized antibody were captured. Dilution series of OX40-his were injected at a flow rate of 10 μl/min in HBS-EP buffer (GE Healthcare Europe GmbH, Cat. No: BR1001-88). After each binding event, the surface was regenerated with 10 μl of glycine buffer pH 1.5. Experimental data were processed using a 1:1 Langmuir model with local Rmax. The dissociation time was about 7 min. Measurements were performed in duplicates or triplicates and included zero-concentration samples for referencing. Both Chit and residual values were used to evaluate the quality of a fit between the experimental data and individual binding models.
Finally, Surface Plasmon Resonance analyses were applied to control antibody variant affinities as described earlier.

Assay [9] addresses T5, recombinant human OX40-his protein. The assay is described as above. As to the method: as §4
Humanized antibody candidates were then assayed for their binding affinity by SPR and Fab thermal stability by DSC.
The source holds these as a separate data set.

Assay [10] addresses T1, human OX40 on cells. Put plainly: flow cytometry on JURKAT-NFkB-OX40 cells, detection anti-human Fc PE, geometric mean of fluorescence intensity.
A further assay has as its target T6, human OX40-Fc (human).
T6 construct: also called recombinant human OX40-Fc; human OX40 (HHHH)
Nature of the assay: ELISA on coated human OX40-Fc, antibody 10 µg/ml. As to the method: as §3

Assay [11] has as its target T1, human OX40 on cells. Put plainly: flow cytometry on HPB-ALL cells, 10 µg/ml antibody. Here is the method:
HPB-ALL cells (DSMZ, Braunschweig, Germany, Cat. No: ACC483) were used as a human OX40 positive cell line for FACS staining. HPB-ALL were maintained in RPMI 1640 supplemented with 10% FCS and 100 U/ml Penicillin and 100 μg/ml streptomycin. 4×10e5 HPB-ALL cells in FACS buffer (PBS supplemented with 1% BSA and 0.1% sodium azide) were incubated for 45 min on ice with the anti-OX40 antibody of interest kept at a concentration of 10 μg/ml An irrelevant human IgG1 was used as an isotype control; the cells were incubated with a 1/200 dilution of anti-Human Fc-PE (EBioscience, Vienna, Austria) for 45 min on ice. Cells were then washed again and resuspended in 200 μl FACS buffer. The relative mean fluorescence of each sample was measured on a FACSCalibur instrument (BD Biosciences, Allschwil, Switzerland).
A first set of 16 humanized antibodies of human gamma one isotype were prepared. These first humanized candidates were assessed for transient expression in HEK293E cells and binding to HB-ALL cell by flow cytometry (Table 7).

In assay [12] the target is T5, recombinant human OX40-his protein. Put plainly: SPR (BIAcore 2000), antibody captured on Protein A, OX40-his injected. Here is the method:
SPR analysis was used to measure the association and dissociation rate constants for the binding kinetics of the anti-OX40 antibodies. The binding kinetics were measured on a BIAcore 2000 (BIAcore-GE Healthcare Europe GmbH, Glattbrugg, Switzerland) at room temperature and analyzed with the BiaEvaluation software (v4.1, GE Healthcare Europe GmbH).
as §4
On the technique in general: In SPR one partner is held on a chip, and binding of the other changes the refractive index at the surface.

Sequence of rat OX40-Fc (rat) (chain, as listed by the source limits assumed): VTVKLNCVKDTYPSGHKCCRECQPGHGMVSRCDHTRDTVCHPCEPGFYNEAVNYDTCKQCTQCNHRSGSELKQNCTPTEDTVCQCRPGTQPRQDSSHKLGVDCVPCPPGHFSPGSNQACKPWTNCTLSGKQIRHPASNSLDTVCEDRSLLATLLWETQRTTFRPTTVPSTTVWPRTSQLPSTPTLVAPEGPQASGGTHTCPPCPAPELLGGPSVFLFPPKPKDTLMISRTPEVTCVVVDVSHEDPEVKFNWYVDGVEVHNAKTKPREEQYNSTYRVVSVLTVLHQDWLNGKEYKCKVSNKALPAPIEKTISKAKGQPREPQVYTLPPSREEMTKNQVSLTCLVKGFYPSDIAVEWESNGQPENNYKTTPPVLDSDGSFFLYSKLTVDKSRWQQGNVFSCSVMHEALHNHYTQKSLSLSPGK
Sequence of recombinant CD40 molecule (R&D) (P25942 21-193 limits assumed): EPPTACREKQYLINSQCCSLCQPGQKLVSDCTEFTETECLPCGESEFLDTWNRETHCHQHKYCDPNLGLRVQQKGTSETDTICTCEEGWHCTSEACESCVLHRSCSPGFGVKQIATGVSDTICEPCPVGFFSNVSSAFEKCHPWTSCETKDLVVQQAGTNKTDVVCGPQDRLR

B1: recombinant human OX40L-Fc protein (Fc fusion, not shown: a dimerising Fc or GST; small tags and cut ends)
chain: QVSHRYPRIQSIKVQFTEYKKEKGFILTSQKEDEIMKVQNNSVIINCDGFYLISLKGYFSQEVNISLHYQKDEEPLFQLKKVRSVNSLMVASLTYKDKVYLNVTTDNTSLDDFHVNGGELILIHQNPGEFCVL
As to B1, in the assay with human OX40 on cells [1], the “% donor responder (>2), SEB assay, IL-2 release” value is 83% and the “Mean, normalized IL-2 release, SEB assay” value worked out at 4.26. In the assay with human OX40 on cells [2], the “donors reaching a 1.2 fold induction of CD4+CD25+ cells compared to SEB only” value was found to be 67%. The “Mean (fold increase proliferation vs control), MLR assay” value with human OX40 on cells [3] is 1.54 fold.

B2: 7H11 IgG1 (Humanized 7H11-VH2 N58K-D54E with 7H11 VL1) (antibody, V domains shown)
VH: QVQLVQSGAEVKKPGASVKVSCKASGYTFTRYYMHWVRQAPGQGLEWMGWIYPGEGSTKYAQKFQGRVTMTRDTSISTAYMELSRLRSDDTAVYYCAREYGNYDYWGQGTLVTVSS
VL: DIVMTQSPDSLAVSLGERATINCKSSQSLLNSGNQKNYLAWYQQKPGQPPKLLIYGASTRESGVPDRFSGSGSGTDFTLTISSLQAEDVAVYYCQNDHSYPYTFGQGTKLEIKR
notes: also called 7H11_v8 IgG1
For the molecule B2, the binding result (in assay [4]; in [5]; in assay [6]; in assay [7]; in the assay with rat OX40-Fc) was “no binding (tested: 10 µg/ml)” throughout.

B3: Humanized 7H11-VH2 N58K-D54T (antibody, human IgG1, kappa, V domains shown)
VH: B2 VH with E55T
VL: B2 VL
notes: human IgG1, kappa; also called 7H11 VH D54T
With B3, the Kd – broadly, the free concentration of one partner at which half of the binding sites on the other are occupied at equilibrium, for simple one-to-one binding – in assay [8] was 32 nM.

B4: Humanized 7H11 VH2 V37M/VL1 (antibody, human IgG1, kappa, V domains shown)
VH: B2 VH with V37M, E55D, K59N
VL: B2 VL
notes: human IgG1, kappa
As for B4, the Kd in assay [9] amounted to 2.87 nM.

B5: Humanized 7H11-VH2 N58K-D54S (antibody, human IgG1, kappa, V domains shown)
VH: B2 VH with E55S
VL: B2 VL
notes: human IgG1, kappa; also called 7H11 VH D54S
Regarding B5, the Kd in [8] came to 49 nM.

B6: 2H6 IgG1 (antibody)
heavy: not shown
light: DIQLTQSPSSLSASVGDRVTITCRASESVDNYGISFMNWFQQKPGKAPKLLIYAASNQKSGVPSRFSGSGSGTDFTLTISSLQPEDFATYFCQQSKEVPLTFGQGTKVEIKRTVAAPSVFIFPPSDEQLKSGTASVVCLLNNFYPREAKVQWKVDNALQSGNSQESVTEQDSKDSTYSLSSTLTLSKADYEKHKVYACEVTHQGLSSPVTKSFNRGEC
For B6, the binding result in assay [4] is on record as “no binding (tested: 10 µg/ml)”; in assay [5] it was “no binding (tested: 10 µg/ml)”; in assay [6] it was “no binding (tested: 10 µg/ml)”; in [7], “no binding (tested: 10 µg/ml)”; with human OX40-Fc it was “binds”; with rat OX40-Fc, “no binding (tested: 10 µg/ml)”. Moreover, the EC50 (read off the curve) – broadly, the concentration that produces a half-maximal response – with human OX40 on cells [10] is ~0.2 µg/mL.

B7: Chimeric 7H11 IgG1 (antibody, V domains shown)
VH: QVQLQQSGPELVKPGASVKMSCKASGYTFTRYYIHWMNQRPGQGLEWIGWIYPGDGSTKYNEKFKGKTTLTADTSSSTAYMLLSSLTSEDSAIYFCAREYGNYDYWGQGTTVTVSS
VL: DIVMTQSPSSLSVSAGEKVTMSCKSSQSLLNSGNQKNYLAWYQQKPGQPPKLLIYGASTRESGVPDRFTGSGSGTDFTLTISSVQAEDLAVYYCQNDHSYPYTFGGGTKLEIK
notes: Mouse variable domains on human IgG1 heavy constant domains and human kappa constant domain; also called 7H11 (chimeric); chimeric 7H11 antibody
On to B7, for which, in the assay with human OX40 on cells [11], the MFI came to 132. Besides, in assay [12], the Kd was found to be 50 nM; the off-rate (koff) (in general, the rate constant with which the complex falls apart) was found to be 0.00066 s⁻¹; the kon (commonly the rate constant with which the complex forms) was 11600 M⁻¹ s⁻¹. Further, the Kd in assay [9] was 50 nM.
